Measurements taken from patent US10119122B2, “Differentiation and expansion of endothelial cells from pluripotent stem cells and the in vitro formation of vasculature like structures” (Academisch Ziekenhuis Leiden, priority 2013, dated 2018).
“Also recorded” adds a separate entry of the source.

Tests used:
Format in all cases: cell-based, human
[1] = system: control iPSC-derived ECs co-cultured with control iPSC-derived pericytes/mesenchymal cells; test: 2D endothelial-pericyte co-culture sprouting assay, control ECs; details: for formation of vascular/endothelial sprouts: TGFβ3 1 ng/ml, compared to control condition
Description: (§1) The endothelial capillary-like network formation assay was carried out as previously described but with major modifications (Evensen et al., 2013). These included using both ECs and pericytes derived from human iPSC lines. This is described in more detail elsewhere (Orlova et al., manuscript in preparation). ECs were labelled with the general cytoplasmic labeling dye (PKH-26). For the sprouting assay, 12,000 ECs derived from both control and diseased lines were plated with 50,000 control iPSC-derived pericytes/well on 0.1% gelatin coated 96-well plates in EGM-2 (Lonza, CC-3162). Next day and on the day 4 of the assay, medium was replaced with new EGM-2 media containing tested compounds as indicated in the figure legends. Endothelial-pericyte co-culture was terminated on day 7 of the assay each well immunofluorescently stained for quantification, as follows: co-cultures were fixed with the 4% paraformaldehyde (PFA), permeabilized with the 0.1% TX-100 and blocked with the normal goat serum (Dako). Endothelial sprouts were visualized with the mouse anti-CD31 (Dako, 1:200). In some experiment with the mouse blocking antibodies, rabbit anti-CD31 (Scbt, 1:200) was used instead. Pericytes were visualized with antibodies against SM22 (Sigma, 1:200). The endothelial network was imaged with the BD Pathway 855 system using the 4× or 10× objective and 2×2 (or 3×3) Montage mode. Total area covered by the endothelial sprouts was quantified with the protocol developed within cell image analysis software CellProfiller (Broad Institute). High magnification images were acquired with the SP5 confocal microscope, using 10× and 40× objectives.
A two-dimensional co-culture system was first established in vitro consisting of control iPSC-derived ECs cultured with the control iPSC-derived mesenchymal cells (FIG. 10A). The protocol was optimized and adapted to the BD Pathway 855 imaging system, based on the protocol initially described for the co-culture of HUVECs and vascular SMCs (vSMCs) (Evensen et al., 2013). On day 7 of the co-culture, iPSC-derived EC had organized and formed spouts on the top mesenchymal cells, as evidenced by immunofluorescent staining with the EC-specific CD31 and SMC-specific SM22 markers (FIG. 10B).
(§2) Endothelial cell-pericyte co-culture was performed as described previously (Evensen et al., 2013) but using conditions optimized for iPSC-derived ECs and pericytes as described (Orlova et al., manuscript in preparation). In brief, 12,000 and 50,000 iPSC-derived ECs and pericytes were plated, respectively, in each well of a 96-well plate. Next day the co-cultures were refreshed with the specific treatment conditions indicated. The co-culture was fixed on day 7, and EC sprouts stained with anti-CD31 antibody (1:200, Dako) (as described in Orlova et al., manuscript in preparation). Pericytes were visualized with the anti-SM22 antibody (1:200, Abcam). The BD Pathway 855 system was used for automatic image acquisition, with the 4× objective and 2×2 (or in some cases 3×3) montage mode. CellProfiller (Broad Institute) custom pipeline was used for the image quantification.

[2] = system: HHT1-iPSC-derived ECs co-cultured with control iPSC-derived pericytes; test: 2D endothelial-pericyte co-culture sprouting assay, HHT1 patient ECs; details: day 7, HHT1-iPSC ECs; for formation of the sprouting network: BMP9 1 ng/ml; for formation of endothelial sprouts: TGFβ3 1 ng/ml
Description: as §1
It was hypothesized that this system might be useful for distinguishing […] versus paracrine effects of endoglin deficiency in HHT1-iPSCs-derived ECs. Therefore, ECs from HHT-iPSC lines in the co-culture assay combined with the pericytes derived from the control iPSCs were examined. Little difference was observed between ECs from HHT1 and control iPSCs in co-culture. ECs from the patient harboring the 1083delAA and IVS 5+2 (T>C) mutation similar endothelial sprout formation as the controls (FIGS. 11A and 11B).
as §2

[3] = system: iPSC-derived pericytes/mesenchymal cells; test: Contractile smooth muscle marker expression in iPSC-derived pericytes/mesenchymal cells; details: stimulation with TGFb (FIG. 16)
Description: Our differentiation system facilitates simultaneous derivation and expansion of pericytes and ECs from iPSC lines. […] Thus, a renewable source of pericytes/SMCs was created for co-culture with ECs that would in principle be able to simulate endothelial-pericyte interaction in humans.
iPSC-derived pericytes/mesenchymal cells were derived from the CD31− fraction emerging during the endothelial differentiation protocol. CD31− cells were plated on gelatin coated plates in EGM-2 media (Lonza). After 4 days medium was replaced by DMEM+10% FBS supplemented with TGFβ3 (2 ng/ml, Peprotech) and PDGF-BB (4 ng/ml, Peprotech). iPSC-derived pericytes were routinely maintained on gelatin-coated plates in DMEM+10% FBS. Cells were characterized for the expression of pericyte and mesenchymal cell-specific markers by flow cytometry and immunofluorescent staining as describe above.
ECs and pericytes were cultured as described above on gelatin coated coverslips. Cells were fixed with 4% PFA, permeabilized and stained with the following antibodies as described (Orlova et al., Manuscript in preparation): anti-Ve-Cadherin (1:200, CellSignaling), anti-vWF (1:200, Dako), anti-CD31 (1:200, Dako), anti-SM22a (1:200, Abcam), anti-SMA (1:400, Sigma), anti-CNN1 (1:200, Sigma).

hPSCs = test: Monolayer endothelial differentiation of hPSCs in defined medium, flow cytometry at day 10; details: additional Activin 25 ng/ml on days 0-3 (BVAC vs BVC); range of iPSC lines; data not shown
From the text: hiPSC lines were generated from Fib or BOECs using conditional lentiviral vectors containing the four transcription factors oct4, c-myc, Klf4 and Sox2, and characterized as described previously (Dambrot et al., 2013; Freund et al., 2008; Orlova et al., manuscript in preparation). hiPSCs and hESC (line HES-NL4; (van de Stolpe et al., 2005)) were routinely maintained on growth factor reduced MATRIGEL®-(BD, 354230) coated plates in mTeSR media (StemCell Technologies, 05850) and passaged mechanically. Differentiation was induced three days after passaging colonies by replacing mTeSR medium with the differentiation media based on BPEL (without PVA) (Ng et al., 2008) with timed addition of the following growth factors: 25 ng/ml ActivinA (Miltenyi, 130-095-547), 30 ng/ml BMP4 (Miltenyi, 130-095-549), VEGF165 (R&D Systems, 293-VE) and small molecule inhibitor CHIR99021 (Tocris, 4423). At day 3 and day 7 of differentiation, the media was refreshed with BPEL containing VEGF and 5 μM SB43152 (Tocris, 1614) only.
Cells were dissociated with TrypLE Select and washed once with the FACs buffer with the 10% FBS, followed by the single wash with the FACs buffer. […] In some experiment samples were analyzed with the MACSQuant VYB (Miltenyi). […]

## c1ccc2c(-c3cnn4cc(-c5ccc(N6CCNCC6)cc5)cnc34)ccnc2c1 [LDN1931189, reference compound]
[1]; LDN1931189, inhibition of ALK1/ALK2/ALK3 pathway, day 7
  sprout formation: no effect on sprout formation

## C[C@H](NC(=O)Cc1cc(F)cc(F)c1)C(=O)N[C@H](C(=O)OC(C)(C)C)c1ccccc1 [DAPT, reference compound]
[1]; 2D co-culture system with DAPT, 46 without DAPT
  number of tip cells: 64

B1: BMP9: BMP9 (R&D), ligand for signaling in ECs, circulating vascular quiescence factor (protein, UniProt Q9UK05 320-429, looked up)
Growth/differentiation factor …: SAGAGSHCQKTSLRVNFEDIGWDSWIIAPKEYEAYECKGGCFFPLADDVTPTKHAIVQTLVHLKFPTKVGKACCVPTKLSPISVLYKDDMGVPTLKYHYEGMSVAECGCR
[1]; BMP9 1 ng/ml, day 7, control iPSC ECs, listed as BMP-9
  formation of the sprouting network: no effect at all
[2]
  formation of the sprouting network: selective inhibitory effect in HHT1-iPSC-derived ECs only
[2]; listed as BMP-9
  formation of the sprouting network: significant inhibition

B2: TRC105: anti-endoglin blocking antibody, in clinical trial as an anti-tumor therapy (antibody, chains of the INN, looked up, V domains shown)
VH: EVKLEESGGGLVQPGGSMKLSCAASGFTFSDAWMDWVRQSPEKGLEWVAEIRSKASNHATYYAESVKGRFTISRDDSKSSVYLQMNSLRAEDTGIYYCTRWRRFFDSWGQGTTLTVSS
VL: QIVLSQSPAILSASPGEKVTMTCRASSSVSYMHWYQQKPGSSPKPWIYATSNLASGVPVRFSGSGSGTSYSLTISRVEAEDAATYYCQQWSSNPLTFGAGTKLELK
[1]; TRC105 120 μg/ml, day 7
  formation of sprouts by ECs: reduction in the formation of the sprouts; also recorded: significantly reduced sprouting
[1]; TRC105, co-culture assay
  surface area covered by ECs: significantly reduced

B3: TGFβ3: growth factor TGFβ3 (Peprotech), transforming growth factor β ligand (protein, UniProt P10600 301-412, looked up)
Transforming growth factor …: ALDTNYCFRNLEENCCVRPLYIDFRQDLGWKWVHEPKGYYANFCSGPCPYLRSADTTHSTVLGLYNTLNPEASASPCCVPQDLEPLTILYYVGRTPKVEQLSNMVVKSCKCS
modifications: Transforming growth factor beta-3
notes: growth factor TGFβ3 (Peprotech), transforming growth factor β ligand
[3]
  up-regulation of vSMC contractile markers: up-regulation of vSMC markers
[1]; day 7
  formation of vascular/endothelial sprouts: dramatic reduction in the formation of the vascular sprouts; also recorded: inhibits sprout formation in all lines
[1]; day 7, listed as TGFβ
  formation of vascular/endothelial sprouts: inhibited endothelial network formation
[2]
  formation of endothelial sprouts: inhibits sprout formation in all lines
[2]; listed as TGFβ
  formation of endothelial sprouts: inhibited formation of the endothelial sprouts; also recorded: inhibited endothelial network formation

B4: Activin: growth factor ActivinA (Miltenyi), 25 ng/ml in mesoderm induction medium (protein, UniProt P08476 311-426, looked up)
Inhibin beta A chain: GLECDGKVNICCKKQFFVSFKDIGWNDWIIAPSGYHANYCEGECPSHIAGTSGSSLSFHSTVINHYRMRGHSPFANLKSCCVPTKLRPMSMLYYDDGQNIIKKDIQNMIVEECGCS
modifications: Inhibin beta A chain
hPSCs
  robustness and reproducibility of differentiation: more robust and reproducible differentiation
